Test results as given in patent publication US20040229290A1 (priority 2003, published 2004).
Changes are numbered by the printed parent chain. Where two headings read alike, the source gives them in different places.

B1: Lac.R1: RBP variant designed to bind L-lactate (protein)
chain: KDTIALVVSTLNVPARVSLKDGAQKEADKLGYNLVVLDSQNNPAKELANVQDLTVRGTKILLINPTDSDAVGNAVKMANQANIPVITLSSQATKGEVVSHIASDNVLGGKIAGDYIAKKAGEGAKVIELQGIAGTSKAREMGEGFQQAVAAHKFNVLASQPADKDRIKGLNVMQNLLTAHPDVQAVFAQIDEMALGALRALQTAGKSDVMVVGFSGTPDGEKAVNDGKLAATIATLPDQIGAKGVETADKVLKGEKVQAKYPVDLKLVVKQ
B2: ribose-binding protein (protein)
chain: KDTIALVVSTLNNPFFVSLKDGAQKEADKLGYNLVVLDSQNNPAKELANVQDLTVRGTKILLINPTDSDAVGNAVKMANQANIPVITLDRQATKGEVVSHIASDNVLGGKIAGDYIAKKAGEGAKVIELQGIAGTSAARERGEGFQQAVAAHKFNVLASQPADFDRIKGLNVMQNLLTAHPDVQAVFAQNDEMALGALRALQTAGKSDVMVVGFDGTPDGEKAVNDGKLAATIAQLPDQIGAKGVETADKVLKGEKVQAKYPVDLKLVVKQ
B3: histidine-binding protein (protein, UniProt P0AEU0 23-260, looked up)
Histidine-binding periplasmic …: AIPQNIRIGTDPTYAPFESKNSQGELVGFDIDLAKELCKRINTQCTFVENPLDALIPSLKAKKIDAIMSSLSITEKRQQEIAFTDKLYAADSRLVVAKNSDIQPTVESLKGKRVGVLQGTTQETFGNEHWAPKGIEIVSYQGQDNIYSDLTAGRIDAAFQDEVAASEGFLKQPVGKDYKFGGPSVKDEKLFGVGTGMGLRKEDNELREALNKAFAEMRADGTYEKLAKKYFDFDVYGG
B4: glutamine-binding protein (protein, UniProt P0AEQ3 23-248, looked up)
Glutamine-binding periplasmic …: ADKKLVVATDTAFVPFEFKQGDKYVGFDVDLWAAIAKELKLDYELKPMDFSGIIPALQTKNVDLALAGITITDERKKAIDFSDGYYKSGLLVMVKANNNDVKSVKDLDGKVVAVKSGTGSVDYAKANIKTKDLRQFPNIDNAYMELGTNRADAVLHDTPNILYFIKTAGNGQFKAVGDSLEAQQYGIAFPKGSDELRDKVNGALKTLRENGTYNEIYKKWFGTEPK
B5: arabinose-binding protein (protein, UniProt P02924 24-329, looked up)
L-arabinose-binding …: ENLKLGFLVKQPEEPWFQTEWKFADKAGKDLGFEVIKIAVPDGEKTLNAIDSLAASGAKGFVICTPDPKLGSAIVAKARGYDMKVIAVDDQFVNAKGKPMDTVPLVMMAATKIGERQGQELYKEMQKRGWDVKESAVMAITANELDTARRRTTGSMDALKAAGFPEKQIYQVPTKSNDIPGAFDAANSMLVQHPEVKHWLIVGMNDSTVLGGVRATEGQGFKAADIIGIGINGVDAVSELSKAQATGFYGSLLPSPDVHGYKSSEMLYNWVAKDVEPPKFTEVTDVVLITRDNFKEELEKKGLGGK
B6: Lac.G2: GBP variant designed to bind L-lactate (protein)
chain: ADTRIGVTIKKYDMNKMSVVRKAIEQDAKAAPDVQLLMNDSQNDQSKQNDQIDVLLAKGVKALAINLVDPAAAGTVIEKARGQNVPVVFFKLEPSRKALDSYDKAYYVGTDSKESGIIQGDLIAKHWAANQGWDLNKDGQIQFVLLKGEPGKPKAEAMTTYVIKELNDKGIKTEQLQLDTAMKDTAQAKDKMDAWLSGPNANKIEVVIANNDAMAMGAVEALKAHNKSSIPVFGVAALPEALALVKSGALAGTVLSDANNQAKATFDLAKNLADGKGAADGTNWKIDNKVVRVPYVGVDKDNLAEFSKK
B7: Lac.G1 (protein)
chain: B6 chain with M14K, K16F, K152M, K154H, M158K, S256D

How the values were obtained:
[1] = target: NovoTim1.0; assay type: biochemical
[2] = target: wild-type TIM (Homo sapiens, UniProt P60174); conditions: cited from earlier work
Chain of wild-type TIM (P60174 whole entry): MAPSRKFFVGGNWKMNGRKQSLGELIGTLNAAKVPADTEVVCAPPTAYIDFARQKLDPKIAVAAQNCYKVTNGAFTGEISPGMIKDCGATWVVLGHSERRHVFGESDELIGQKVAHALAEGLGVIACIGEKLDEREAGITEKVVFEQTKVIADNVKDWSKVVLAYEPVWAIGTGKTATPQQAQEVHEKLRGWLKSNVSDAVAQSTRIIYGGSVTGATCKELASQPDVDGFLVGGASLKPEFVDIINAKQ

[3] = read-out: DHAP → GAP KM; cited from earlier work
[4] = read-out: KM (μM), second group; cited from earlier work
[5] = assay type: binding; conditions: read-out: K1 (μM) Pyr
[6] = assay type: binding; conditions: read-out: K1 (μM) L-lac
[7] = assay type: binding; conditions: read-out: K1 (μM) D-lac
[8] = assay type: physicochemical; conditions: pH 7
[9] = read-out: affinities of wild-type receptors for cognate ligands; cited from earlier work

Molecule	Kd [5] [µM]	Kd [6] [µM]	Kd [7] [µM]	Tm [8] [°C]	further results
O=C(O)COP(=O)(O)O [phosphoglycolate]	–	–	–	–	Ki [1]: 130 µM; Ki [2]: 4 µM
triose phosphate isomerase [wtTIM]	–	–	–	–	Km [3]: 1600 µM; Km [4]: 390 µM
B1	40	7.4	40	–	–
B2	–	–	–	58	Kd [9]: 0.2 µM
B3	–	–	–	58	–
B4	–	–	–	62	–
B5	–	–	–	54	–
B6	115	2.1	55	50	–
B7	255	2.8	205	–	–
